What is called Kd is the concentration at which binding is half-saturated.

Data on 13 sequences can be found in the Immune Epitope Database (IEDB).

In assay [1] the target is HLA-B*58:01. Put plainly: IEDB peptide-MHC binding, purified MHC/direct/fluorescence; filed as Kd, often an IC50 or EC50 that approximates it; ≥ and ≤ were set here for values at or beyond the usual limits of such assays. The following applies: source organism: Giardia lamblia ATCC 50803.
Assay [2] addresses HLA-B*07:02. The assay is described as above. The following applies: source organism: Giardia lamblia ATCC 50803.
Assay [3] deals with HLA-B*08:01. The assay is described as above. As to conditions: source organism: Giardia lamblia ATCC 50803.
Assay [4] has as its target HLA-A*02:01. The description is as above. As to conditions: source organism: Giardia lamblia ATCC 50803.
The target of assay [5] is HLA-B*44:02. Described as above. As to conditions: source organism: Giardia lamblia ATCC 50803.
For assay [6], the target named is HLA-B*40:01. Described as above. As to conditions: source organism: Giardia lamblia ATCC 50803.
Assay [7] addresses HLA-A*03:01. The description is as above. The following applies: source organism: Giardia lamblia ATCC 50803.
Assay [8] addresses HLA-B*57:01. The description is as above. As to conditions: source organism: Giardia lamblia ATCC 50803.
Assay [9] deals with HLA-B*27:05. The assay is described as above. The following applies: source organism: Giardia lamblia ATCC 50803.
Assay [10] addresses HLA-A*31:01. The description is as above. As to conditions: source organism: Giardia lamblia ATCC 50803.
Assay [11] concerns the target HLA-B*15:01. The description is as above. As to conditions: source organism: Giardia lamblia ATCC 50803.
In assay [12] the target is HLA-B*15:17. The description is as above. As to conditions: source organism: Giardia lamblia ATCC 50803.
Assay [13] deals with HLA-A*11:01. Described as above. As to conditions: source organism: Giardia lamblia ATCC 50803.
Assay [14] has as its target HLA-A*69:01. The description is as above. As to conditions: source organism: Giardia lamblia ATCC 50803.
The target of assay [15] is HLA-A*26:01. The assay is described as above. The following applies: source organism: Giardia lamblia ATCC 50803.
The target of assay [16] is HLA-A*02:01. Description: IEDB peptide-MHC binding, purified MHC/competitive/radioactivity; filed as Kd, often an IC50 or EC50 that approximates it; ≥ and ≤ were set here for values at or beyond the usual limits of such assays.
In assay [17] the target is HLA-B*18:01. Described as above.
The target in assay [18] is HLA-B*40:02. The assay is described as above.
Assay [19] deals with HLA-B*44:02. The assay is described as above.
Assay [20] deals with HLA-B*40:01. Described as above.
Assay [21] concerns the target HLA-B*44:03. The description is as above.
Assay [22] has as its target HLA-B*45:01. The assay is described as above.
For assay [23], the target named is HLA-B*46:01. Put plainly: IEDB peptide-MHC binding, purified MHC/competitive/fluorescence; filed as Kd, often an IC50 or EC50 that approximates it; ≥ and ≤ were set here for values at or beyond the usual limits of such assays. As to conditions: source organism: Giardia lamblia ATCC 50803.
In assay [24] the target is HLA-A*01:01. Description: IEDB peptide-MHC binding, purified MHC/direct/fluorescence; filed as Kd, often an IC50 or EC50 that approximates it; ≥ and ≤ were set here for values at or beyond the usual limits of such assays. The following applies: source organism: Giardia lamblia ATCC 50803.
The mark [25] stands for this setting: source organism: Lassa virus Josiah.
Setting [26] is: source organism: SARS coronavirus Tor2.
Where [27] appears, read: source organism: Mammarenavirus guanaritoense.
The mark [28] stands for this setting: source organism: Mammarenavirus lassaense.

Regarding ISYTYNDNW, the Kd in [1] is 0.0118 µM; in assay [2], at least 20 µM; in [3] it was at least 20 µM; in assay [4], at least 20 µM; in assay [5], at least 20 µM; in assay [6], at least 20 µM. The Kd in [7] is at least 20 µM; in assay [8] it was 0.0641 µM; in assay [9] it was at least 20 µM; in [10], at least 20 µM; in assay [11] it was at least 20 µM; in assay [12], 0.0014 µM. Moreover, the Kd in [13], in assay [14] and in assay [15] was at least 20 µM each time.

Consider SIPNFNQYEA, for which the Kd in [16] (setting [25]) was at least 25 µM.

Turning to GETALALLLL, the Kd in [17] (setting [26]) was at least 48.1 µM; in assay [18] (setting [26]), 0.0162 µM; in [19] (setting [26]), 1.34 µM; in assay [20] (setting [26]), 0.0161 µM; in assay [21] (setting [26]), 0.149 µM; in assay [22] (setting [26]) it was 1.9 µM.

As for SLFEGIDFYT, the Kd in [16] (source organism: Homo sapiens) came out at 0.0011 µM.

In the case of LENAQPGLL, the Kd was 10.7 µM in assay [17] (setting [27]); 0.182 µM in [18] (setting [27]); 6.08 µM in assay [19] (setting [27]); 1.03 µM in [20] (setting [27]); 13.8 µM in [21] (setting [27]); at least 48 µM in assay [22] (setting [27]).

FLTYLDVSV: the Kd in assay [16] (source organism: Homo sapiens) is at most 0.001 µM.

As to SEGNATPGGY, the Kd in [17] (setting [28]) is 18.7 µM; in assay [18] (setting [28]), at least 70.8 µM; in assay [19] (setting [28]), 19.5 µM; in assay [20] (setting [28]), at least 64.2 µM; in [21] (setting [28]), 7.25 µM; in assay [22] (setting [28]), at least 70 µM.

With VENPDILRV, the Kd is 9.07 µM in assay [17] (setting [26]); 1.27 µM in assay [18] (setting [26]); 5.14 µM in assay [19] (setting [26]); at least 21.8 µM in assay [20] (setting [26]); 0.25 µM in assay [21] (setting [26]); 0.474 µM in assay [22] (setting [26]).

Take SLADEAEVHL: the Kd in [16] (source organism: Homo sapiens) worked out at 0.029 µM.

In the case of ITFHNQRDF, the Kd in assay [23] was at least 20 µM; in assay [1] it was 0.165 µM; in assay [2], at least 20 µM; in [24], at least 20 µM; in assay [3] it was at least 20 µM; in assay [4] it was at least 20 µM. For the same sequence, the Kd in assay [5] was at least 20 µM; in [6] it was at least 20 µM; in assay [7], at least 20 µM; in [8], 0.125 µM; in [9], at least 20 µM; in assay [10], at least 20 µM. The Kd in [11] was 0.146 µM; in assay [12], 0.0052 µM; in [13], at least 20 µM; in assay [14] it was at least 20 µM; in assay [15], at least 20 µM.

As for WITQCFLPV, the equilibrium dissociation constant (Kd) in assay [16] (source organism: Homo sapiens) amounted to 0.173 µM.

As for WEILKFLIT, the Kd in assay [17] (setting [26]) worked out at 2.9 µM; in assay [18] (setting [26]) it was 0.00209 µM; in assay [19] (setting [26]) it was 9.58 µM; in [20] (setting [26]) it was 4.36 µM; in assay [21] (setting [26]), 1.45 µM; in assay [22] (setting [26]) it was 4.99 µM.

As to FDAAVSGGL, the Kd in [17] (setting [25]) is at least 77.5 µM; in [18] (setting [25]), 5.87 µM; in assay [19] (setting [25]) it was at least 77.9 µM; in assay [20] (setting [25]), at least 20 µM; in assay [21] (setting [25]), at least 78.1 µM; in assay [22] (setting [25]), at least 28.8 µM.
